# Positions count from the first letter of the chain named.
# T1: CueO-PMI (E. coli, UniProt P36649 29-516, M358I | PMI peptide insert (translated from primers 13 and 14, Table 3: 385-395 …))
# T1 construct: signal peptide in the construct; source: E. coli BL21(DE3), purified (HisTrap)
# T1 sequence (looked up): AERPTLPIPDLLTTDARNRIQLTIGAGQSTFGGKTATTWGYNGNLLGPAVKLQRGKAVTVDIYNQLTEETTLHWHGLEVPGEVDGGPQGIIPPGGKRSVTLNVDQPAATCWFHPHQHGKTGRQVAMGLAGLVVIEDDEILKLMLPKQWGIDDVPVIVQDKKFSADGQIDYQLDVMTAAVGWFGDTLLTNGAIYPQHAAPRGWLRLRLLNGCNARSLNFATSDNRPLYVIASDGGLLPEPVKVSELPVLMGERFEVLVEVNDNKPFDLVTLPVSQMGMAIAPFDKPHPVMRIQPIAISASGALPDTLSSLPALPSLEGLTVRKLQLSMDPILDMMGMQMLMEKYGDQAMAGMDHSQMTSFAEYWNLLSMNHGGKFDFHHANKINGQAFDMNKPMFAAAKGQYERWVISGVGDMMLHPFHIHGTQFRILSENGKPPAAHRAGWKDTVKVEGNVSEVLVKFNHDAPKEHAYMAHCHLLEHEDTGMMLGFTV
# T2: CueO (M358I) (E. coli, UniProt P36649 29-516, M358I)
# T2 construct: signal peptide in the construct (primer 1 begins at the precursor's ATG); E. coli multi-copper oxidase CueO, gene amplified from JM109 genomic DNA with primers 1 and 2; The M358I mutation arose during cloning and is present in all variants; The signal peptide may be cut in E. coli (surmise; the solved variants are modelled from residue 29 or 30); source: E. coli BL21(DE3), purified (HisTrap)
# T2 sequence (looked up): T1 sequence (looked up) with T357M, S358G, F359H, A360M, E361G, Y362H, W363G, L365M, L366N, S367H
# T3: CueO-12.1 (E. coli, UniProt P36649 29-516, M358I | 12.1 peptide replaced residues 384–394 (translated from primers 9 and …))
# T3 construct: signal peptide in the construct; source: E. coli BL21(DE3), purified (HisTrap)
# T3 sequence (looked up): T1 sequence (looked up) with T357P, S358R, A360M, E361D, N364E, L365G, S367N
# B1: CueO-PM2 (designed binder)
# chain: T1 sequence (looked up) with N364A
# B2: MDM2(6–125) (domain or fragment, UniProt Q00987 6-125, looked up)
# chain: MSVPTDGAVTTSQIPASEQETLVRPKPLLLKLLKSVGAQKDTYTMKEVLFYLGQYIMTKRLYDEKQQHIVYCSNDLLGDLFGVPSFSVKEHRKIYTMIYRNLVVVNQQESSDSGTSVSEN
# Legend:
# MDM2(6–125) = molecular target: B2; assay: cell-based or functional assay
# CueO-PMI = molecular target: T1, CueO-PMI; assay: fluorescence polarisation; competitive fluorescence anisotropy; CueO proteins titrated against 150 nM MDM2(6–125) and 50 nM FITC-labeled 12.1 peptide; PBS, 3% DMSO, 0.1% Tween 20; apparent Kd; details: both partners purified
# CueO-PM2 = molecular target: B1; assay: as above; details: both partners purified
# CueO (M358I) = molecular target: T2, CueO (M358I); assay: as above; details: both partners purified
# CueO-12.1 = molecular target: T3, CueO-12.1; assay: as above; details: both partners purified
Binder,"kcat of syringaldazine oxidation by CueO-PM2 preincubated with 10 μM MDM2, against CueO-PM2 alone (MDM2(6–125)) [fold]",Kd (CueO-PMI) [nM],Kd (CueO-PM2) [nM],Kd (CueO (M358I)) [nM],Kd (CueO-12.1) [nM]
B1,~1.6,,,,
B2,,28,25,44300,722
